# Reference: article PMC4824412
# Where “and” joins values, the source holds several entries; their conditions need not be identical. Identical values can stand only once.
# Columns and labels:
# [1] = biological target: GARPTS, soluble tail switch mutant of human GARP (glycoprotein A repetitions predominant) (human) (UniProt Q14392)
# [2] = biological target: GARPTS, soluble tail switch mutant of human GARP (glycoprotein A repetitions predominant) (human) (UniProt Q14392); assay: non-reducing SDS-PAGE and western blot of disulfide-linked complexes; GARPTS (300 ng) and a mixture of pro-TGFβ and latent TGFβ (600 ng) incubated overnight at RT in redox buffer (oxidized glutathione and 2 mM free cysteine), no pull-down; 10% gel, non-reducing; anti-Strep-tag or anti-His-tag antibodies
proliferation of Mv1Lu cells with a constant 60 ng/ml latent TGFβ pre-incubated with 10-40 ng/ml GARPTS; value at approximately 40 ng/ml (0.5 nM) GARPTS [1] [%],stoichiometry N (GARP per TGFβ) [2],Substance
< 60,2 and 1,recombinant latent TGFβ (furin-cleaved pro-TGFβ; LAP non-covalently bound to the mature cytokine) (complex)
,2 and 1,recombinant pro-TGFβ (not cleaved by furin) (natural protein)
